Earlier results, collected in patent US20230129812A1, “COMPOSITIONS AND METHODS FOR TREATING PULMONARY HYPERTENSION” (Acceleron Pharma Inc., priority 2020, published 2023).
Substitutions are numbered along the chain they refer to. Numbers in names are those of the source.

B1: +15tail: soluble ActRIIB-Fc variant with the 15 amino acid tail, as reported in WO2006/012627 (protein)
chain: SGRGEAETRECIYYNANWELERTNQSGLERCEGEQDKRLHCYASWANSSGTIELVKKGCWLDDFNCYDRQECVATEENPQVYFCCCEGNFCNERFTHLPEAGGPEVTYEPPPTAPT
modifications: left off: a dimerising Fc or GST
B2: K74Y: soluble ActRIIB-Fc variant, as reported in WO2006/012627 (protein)
chain: SGRGEAETRECIYYNANWELERTNQSGLERCEGEQDKRLHCYASWANSSGTIELVYKGCWLDDFNCYDRQECVATEENPQVYFCCCEGNFCNERFTHLPEA
modifications: left off: a dimerising Fc or GST
B3: D80M: soluble ActRIIB-Fc variant, as reported in WO2006/012627 (protein)
chain: B2 chain with Y56K, D62M
modifications: left off: a dimerising Fc or GST
B4: L79A: soluble ActRIIB-Fc variant, as reported in WO2006/012627 (protein)
chain: B2 chain with Y56K, L61A
modifications: left off: a dimerising Fc or GST
B5: K74F: soluble ActRIIB-Fc variant, as reported in WO2006/012627 (protein)
chain: B2 chain with Y56F
modifications: left off: a dimerising Fc or GST
B6: D80I: soluble ActRIIB-Fc variant, as reported in WO2006/012627 (protein)
chain: B2 chain with Y56K, D62I
modifications: left off: a dimerising Fc or GST
B7: D80R: soluble ActRIIB-Fc variant, as reported in WO2006/012627 (protein)
chain: B2 chain with Y56K, D62R
modifications: left off: a dimerising Fc or GST
B8: E37A: soluble ActRIIB-Fc variant, as reported in WO2006/012627 (protein)
chain: B2 chain with E19A, Y56K
modifications: left off: a dimerising Fc or GST
B9: W78A: soluble ActRIIB-Fc variant, as reported in WO2006/012627 (protein)
chain: B2 chain with Y56K, W60A
modifications: left off: a dimerising Fc or GST
B10: R40A: soluble ActRIIB-Fc variant, as reported in WO2006/012627 (protein)
chain: B2 chain with R22A, Y56K
modifications: left off: a dimerising Fc or GST
B11: D80K: soluble ActRIIB-Fc variant, as reported in WO2006/012627 (protein)
chain: B2 chain with Y56K, D62K
modifications: left off: a dimerising Fc or GST
B12: D80N: soluble ActRIIB-Fc variant, as reported in WO2006/012627 (protein)
chain: B2 chain with Y56K, D62N
modifications: left off: a dimerising Fc or GST
B13: K74A: soluble ActRIIB-Fc variant, as reported in WO2006/012627 (protein)
chain: B2 chain with Y56A
modifications: left off: a dimerising Fc or GST
B14: K74I: soluble ActRIIB-Fc variant, as reported in WO2006/012627 (protein)
chain: B2 chain with Y56I
modifications: left off: a dimerising Fc or GST
B15: WT (64A): soluble ActRIIB-Fc, wild type with 64A, as reported in WO2006/012627 (protein)
chain: B2 chain with Y56K
modifications: left off: a dimerising Fc or GST
B16: R56A: soluble ActRIIB-Fc variant, as reported in WO2006/012627 (protein)
chain: B2 chain with R38A, Y56K
modifications: left off: a dimerising Fc or GST
B17: K55A: soluble ActRIIB-Fc variant, as reported in WO2006/012627 (protein)
chain: B2 chain with K37A, Y56K
modifications: left off: a dimerising Fc or GST
B18: D80A: soluble ActRIIB-Fc variant, as reported in WO2006/012627 (protein)
chain: B2 chain with Y56K, D62A
modifications: left off: a dimerising Fc or GST
B19: D80F: soluble ActRIIB-Fc variant, as reported in WO2006/012627 (protein)
chain: B2 chain with Y56K, D62F
modifications: left off: a dimerising Fc or GST
B20: F82A: soluble ActRIIB-Fc variant, as reported in WO2006/012627 (protein)
chain: B2 chain with Y56K, F64A
modifications: left off: a dimerising Fc or GST
B21: D80G: soluble ActRIIB-Fc variant, as reported in WO2006/012627 (protein)
chain: B2 chain with Y56K, D62G
modifications: left off: a dimerising Fc or GST
B22: D54A: soluble ActRIIB-Fc variant, as reported in WO2006/012627 (protein)
chain: B2 chain with D36A, Y56K
modifications: left off: a dimerising Fc or GST
B23: WT (64R): soluble ActRIIB-Fc, wild type with 64R, as reported in WO2006/012627 (protein)
chain: B2 chain with A46R, Y56K
modifications: left off: a dimerising Fc or GST

Biological target: T1, ActA (Homo sapiens, UniProt P08476)
T1 sequence (P08476 311-426): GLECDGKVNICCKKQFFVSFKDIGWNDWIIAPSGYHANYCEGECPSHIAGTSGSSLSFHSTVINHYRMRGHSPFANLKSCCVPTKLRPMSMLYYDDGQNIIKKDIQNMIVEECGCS
Parameters: key to ActA binding relative to WT: *: No observed binding; −−: <⅕ WT binding; −: ~½ WT binding; +: WT; ++: <2x increased binding; +++: ~5x increased binding; ++++: ~10x increased binding; +++++: ~40x increased binding
Settings: Table 11, reproduced from WO2006/012627; cited from earlier work

| Molecule | ActA binding relative to WT |
| --- | --- |
| B1 | (+++) (~5x increased binding) |
| B2 | * |
| B3 | * |
| B4 | + |
| B5 | * |
| B6 | * |
| B7 | * |
| B8 | * |
| B9 | * |
| B10 | − (~½ WT binding) |
| B11 | * |
| B12 | * |
| B13 | +++++ (~40x increased binding) |
| B14 | * |
| B15 | (+) |
| B16 | * |
| B17 | ++ (<2x increased binding) |
| B18 | * |
| B19 | * |
| B20 | ++ (<2x increased binding) |
| B21 | * |
| B22 | − (~½ WT binding) |

Same assay, conditions: WO2006/012627; cited from earlier work

| Molecule | ratio of activin A (ActA) binding to GDF11 binding, relative to the wild-type K74 molecule |
| --- | --- |
| B2 | decrease |
| B5 | decrease |
| B6 | decrease |
| B14 | decrease |

Biological target: T2, GDF11 (Homo sapiens, UniProt O95390)
T2 sequence (O95390 299-407): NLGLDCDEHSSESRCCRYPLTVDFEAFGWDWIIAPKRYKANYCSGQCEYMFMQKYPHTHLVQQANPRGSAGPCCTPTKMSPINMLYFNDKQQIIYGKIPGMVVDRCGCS
Parameters: key: *: No observed binding; −−: <⅕ WT binding; −: ~½ WT binding; +: WT; ++: <2x increased binding; +++: ~5x increased binding; ++++: ~10x increased binding; +++++: ~40x increased binding
Settings: Table 11, reproduced from WO2006/012627; cited from earlier work

| Molecule | GDF11 binding relative to WT |
| --- | --- |
| B1 | (++++) (~10x increased binding) |
| B2 | −− (<⅕ WT binding) |
| B3 | * |
| B4 | * |
| B23 | (+++) (~5x increased binding) |
| B5 | −− (<⅕ WT binding) |
| B6 | −− (<⅕ WT binding) |
| B7 | * |
| B8 | * |
| B9 | * |
| B10 | − (~½ WT binding) |
| B11 | * |
| B12 | * |
| B14 | −− (<⅕ WT binding) |
| B15 | (+) |
| B16 | * |
| B17 | * |
| B18 | * |
| B19 | * |
| B20 | − (~½ WT binding) |
| B21 | * |
| B22 | * |
